The text below walks through data of publication PMC8775935, “Chebulinic Acid Suppresses Adipogenesis in 3T3-L1 Preadipocytes by Inhibiting PPP1CB Activity” (International Journal of Molecular Sciences, 2022).

Usually Km stands for the substrate concentration at which the rate is half of its maximum. What is called Vmax is the rate approached at saturating substrate. As a reminder, the kcat is the maximal rate divided by the concentration of active sites. The kcat/Km is the turnover number divided by the Michaelis constant.

Substrate in this series: Cc1cc(=O)oc2c(F)c(OP(=O)(O)O)c(F)cc12
The series is described as follows: enzyme kinetics, fluorescence of DiFMU product; KM. It is filed as biochemical, Homo sapiens. To be noted: Mn2+ ([…] MnCl2 in buffer).

B1: protein phosphatase-1 catalytic subunit beta (PPP1CB) (Homo sapiens) (protein)
chain: MADGELNVDSLITRLLEVRGCRPGKIVQMTEAEVRGLCIKSREIFLSQPILLELEAPLKICGDIHGQYTDLLRLFEYGGFPPEANYLFLGDYVDRGKQSLETICLLLAYKIKYPENFFLLRGNHECASINRIYGFYDECKRRFNIKLWKTFTDCFNCLPIAAIVDEKIFCCHGGLSPDLQSMEQIRRIMRPTDVPDTGLLCDLLWSDPDKDVQGWGENDRGVSFTFGADVVSKFLNRHDLDLICRAHQVVEDGYEFFAKRQLVTLF
As to B1, the Km was 186.2 µM, the Vmax turned out to be 3.4 µM/min, the kcat came out at 38.3 s⁻¹ and the kcat/Km was 210000 M⁻¹ s⁻¹.
